{"source": "paper PMC6943187", "biological_target": "WT FUS::EGFP (FUS tagged with a C-terminal GFP tag) (UniProt P35637)", "assay": "single-molecule photobleaching step counting"}
{"substance": "WT FUS::EGFP (FUS tagged with a C-terminal GFP tag) (from UniProt P35637 1-526)", "values": [{"measurement": "fraction of dimers (two-step photobleaching)", "result": 30, "unit": "%"}]}
